Test results from patent US20230340160A1 (published 2023).

Columns and labels:
[1] = target: T1, human CD3 expressed on Jurkat cells (human, UniProt P07766 23-207); test: flow cytometry on Jurkat cells
T1 construct: CD3 complex on Jurkat cells (ATCC TIB-152); also called huCD3
Description: Binding of the different bispecific constructs to CD3 on Jurkat cells (ATCC #TIB-152), and the respective tumor antigen on target cells, was determined by FACS. Briefly, cells were harvested, counted and checked for viability. 0.15 - 0.2 million cells per well (in PBS containing 0.1% BSA; 90 µl) were plated in a round-bottom 96-well plate and incubated with the indicated concentration of the bispecific constructs and corresponding IgG controls (10 µl) for 30 min at 4° C. For a better comparison, all constructs and IgG controls were normalized to same molarity. After the incubation, cells were centrifuged (5 min, 350 × g), washed with 150 µl PBS containing 0.1% BSA, resuspended and incubated for further 30 min at 4° C. with 12 µl/well of a FITC-or PE-conjugated secondary antibody. Bound constructs were detected using a FACSCantoII (Software FACS Diva). The “(scFv)₂” molecule was detected using a FITC-conjugated anti-His antibody (Lucerna, #RHIS-45F-Z). For all other molecules, a FITC- or PE-conjugated AffiniPure F(ab′)2 Fragment goat anti-human IgG Fcγ Fragment Specific (Jackson Immuno Research Lab # 109-096-098 / working solution 1:20, or #109-116-170 / working solution 1:80, respectively) was used. Cells were washed by addition of 120 µl/well PBS containing 0.1% BSA and centrifugation at 350 × g for 5 min. A second washing step was performed with 150 µl/well PBS containing 0.1% BSA. Unless otherwise indicated, cells were fixed with 100 µl/well fixation buffer (BD #554655) for 15 min at 4° C. in the dark, centrifuged for 6 min at 400 × g and kept in 200 µl/well PBS containing 0.1% BSA until the samples were measured with FACS CantoII. EC50 values were calculated using the GraphPad Prism software.
(§1) As a control, the equivalent maximum concentration of the corresponding IgGs and the background staining due to the labeled 2ndary antibody (goat anti-human FITC-conjugated AffiniPure F(ab′)2 Fragment, Fcγ Fragment-specific, Jackson Immuno Research Lab # 109-096-098) were assessed as well.

[2] = target: T2, human CEA expressed on tumor cells (human, UniProt P06731 35-702); test: cell-based or functional assay
T2 sequence (looked up): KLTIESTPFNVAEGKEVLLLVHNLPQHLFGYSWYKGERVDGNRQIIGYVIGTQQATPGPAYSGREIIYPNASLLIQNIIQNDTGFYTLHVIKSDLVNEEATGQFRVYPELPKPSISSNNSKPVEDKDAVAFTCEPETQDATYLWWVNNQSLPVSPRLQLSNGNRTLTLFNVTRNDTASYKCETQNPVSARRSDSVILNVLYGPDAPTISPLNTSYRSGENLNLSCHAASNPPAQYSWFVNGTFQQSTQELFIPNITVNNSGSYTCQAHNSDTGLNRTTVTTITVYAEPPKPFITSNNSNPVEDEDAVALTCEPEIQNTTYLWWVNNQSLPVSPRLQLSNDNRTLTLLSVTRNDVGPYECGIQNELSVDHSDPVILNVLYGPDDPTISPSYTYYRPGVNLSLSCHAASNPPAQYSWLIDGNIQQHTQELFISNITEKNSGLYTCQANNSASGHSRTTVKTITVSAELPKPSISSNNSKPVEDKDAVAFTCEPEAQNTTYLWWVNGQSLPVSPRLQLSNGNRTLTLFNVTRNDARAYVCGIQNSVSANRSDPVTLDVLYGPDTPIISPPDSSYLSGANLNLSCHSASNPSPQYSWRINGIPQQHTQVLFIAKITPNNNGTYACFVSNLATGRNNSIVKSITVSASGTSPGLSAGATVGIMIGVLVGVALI

[3] = target: T2, human CEA expressed on tumor cells; test: flow cytometry on LS-174T cells
Description: Binding of the different bispecific constructs to CD3 on Jurkat cells (ATCC #TIB-152), and the respective tumor antigen on target cells, was determined by FACS. Briefly, cells were harvested, counted and checked for viability. 0.15 - 0.2 million cells per well (in PBS containing 0.1% BSA; 90 µl) were plated in a round-bottom 96-well plate and incubated with the indicated concentration of the bispecific constructs and corresponding IgG controls (10 µl) for 30 min at 4° C. For a better comparison, all constructs and IgG controls were normalized to same molarity. […] Bound constructs were detected using a FACSCantoII (Software FACS Diva). The “(scFv)₂” molecule was detected using a FITC-conjugated anti-His antibody (Lucerna, #RHIS-45F-Z). […] Unless otherwise indicated, cells were fixed with 100 µl/well fixation buffer (BD #554655) for 15 min at 4° C. in the dark, centrifuged for 6 min at 400 × g and kept in 200 µl/well PBS containing 0.1% BSA until the samples were measured with FACS CantoII. EC50 values were calculated using the GraphPad Prism software.
as §1

[4] = target: T3, Human EGFR (immobilized on CM5 sensor chip) (human, UniProt P00533 25-645, limits assumed); test: SPR; construct (200 nM) captured on immobilized human EGFR, then CD3 fusion injected (FIG. 18A)
T3 construct: 8000 RU immobilized by amine coupling; also called Epidermal Growth Factor Receptor
Description: (§2) Analysis of simultaneous binding of the T-cell bispecific constructs to the tumor antigen and the human CD3ε was performed by direct coupling of 1650 resonance units (RU) of biotinylated D3 domain of MCSP on a sensor chip SA using the standard coupling procedure. Human EGFR was immobilized using standard amino coupling procedure. 8000 RU were immobilized on a CM5 sensor chip at pH 5.5.
(§3) Different T-cell bispecific constructs were captured for 60 s at 200 nM. Human CD3γ(G₄S)₅CD3ε-AcTev-Fc(knob)-Avi/Fc(hole) was subsequently passed at a concentration of 2000 nM and a flow rate of 40 µl/min for 60 s. Bulk refractive index differences were corrected for by subtracting the response obtained on a reference flow cell where the recombinant CD3ε was flown over a surface with immobilized D3 domain of MCSP or EGFR without captured T-cell bispecific constructs.

[5] = target: T3, Human EGFR (immobilized on CM5 sensor …); test: SPR; construct (200 nM) captured on immobilized human EGFR, then CD3 fusion injected (FIG. 18B)
Description: as §2, §3

[6] = target: T3, Human EGFR (immobilized on CM5 sensor …); test: SPR; construct (200 nM) captured on immobilized human EGFR, then CD3 fusion injected (FIG. 18C)
Description: as §2, §3

[7] = target: T3, Human EGFR (immobilized on CM5 sensor …); test: SPR; construct (200 nM) captured on immobilized human EGFR, then CD3 fusion injected (FIG. 18D)
Description: as §2, §3

T1 sequence (P07766 23-207 limits assumed): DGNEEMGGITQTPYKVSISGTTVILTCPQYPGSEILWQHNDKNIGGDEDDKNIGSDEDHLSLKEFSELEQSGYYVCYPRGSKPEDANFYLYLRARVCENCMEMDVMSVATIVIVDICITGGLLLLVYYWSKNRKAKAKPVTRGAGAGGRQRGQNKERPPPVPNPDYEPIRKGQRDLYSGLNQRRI

B1: CEA/CD3 “2+1 IgG Crossfab, inverted (CL/CH1)”; CL/CH1 exchange (CH1A1A/V9) (bispecific antibody)
heavy 1: not shown
heavy 2: QVQLVQSGAEVKKPGASVKVSCKASGYTFTEFGMNWVRQAPGQGLEWMGWINTKTGEATYVEEFKGRVTFTTDTSTSTAYMELRSLRSDDTAVYYCARWDFAYYVEAMDYWGQGTTVTVSSASTKGPSVFPLAPSSKSTSGGTAALGCLVKDYFPEPVTVSWNSGALTSGVHTFPAVLQSSGLYSLSSVVTVPSSSLGTQTYICNVNHKPSNTKVDKKVEPKSCDKTHTCPPCPAPEAAGGPSVFLFPPKPKDTLMISRTPEVTCVVVDVSHEDPEVKFNWYVDGVEVHNAKTKPREEQYNSTYRVVSVLTVLHQDWLNGKEYKCKVSNKALGAPIEKTISKAKGQPREPQVCTLPPSRDELTKNQVSLSCAVKGFYPSDIAVEWESNGQPENNYKTTPPVLDSDGSFFLVSKLTVDKSRWQQGNVFSCSVMHEALHNHYTQKSLSLSPGK
light 1: DIQMTQSPSSLSASVGDRVTITCKASAAVGTYVAWYQQKPGKAPKLLIYSASYRKRGVPSRFSGSGSGTDFTLTISSLQPEDFATYYCHQYYTYPLFTFGQGTKLEIKRTVAAPSVFIFPPSDEQLKSGTASVVCLLNNFYPREAKVQWKVDNALQSGNSQESVTEQDSKDSTYSLSSTLTLSKADYEKHKVYACEVTHQGLSSPVTKSFNRGEC
light 2: DIQMTQSPSSLSASVGDRVTITCRASQDIRNYLNWYQQKPGKAPKLLIYYTSRLESGVPSRFSGSGSGTDYTLTISSLQPEDFATYYCQQGNTLPWTFGQGTKVEIKSSASTKGPSVFPLAPSSKSTSGGTAALGCLVKDYFPEPVTVSWNSGALTSGVHTFPAVLQSSGLYSLSSVVTVPSSSLGTQTYICNVNHKPSNTKVDKKVEPKSC
notes: 66 is the DNA of 65; also called CL/CH1-exchange construct
EC50 [1]: 3.9 nM
EC50 of killing (LDH release) of LS-174T cells, human PBMCs, E:T 10:1, 28 h [2]: 0.673 nM
EC50 of killing (LDH release) of MKN-45 cells, human PBMCs, E:T 10:1, 28 h [2]: 0.115 nM
EC50 [3]: 6.7 nM

B2: CEA/CD3 “2+1 IgG Crossfab, inverted (VL/VH)”; VL/VH exchange (CH1A1A/V9) (bispecific antibody)
heavy 1: not shown
heavy 2: B1 heavy 2
light 1: B1 light 1
light 2: EVQLVESGGGLVQPGGSLRLSCAASGYSFTGYTMNWVRQAPGKGLEWVALINPYKGVSTYNQKFKDRFTISVDKSKNTAYLQMNSLRAEDTAVYYCARSGYYGDSDWYFDVWGQGTLVTVSSASVAAPSVFIFPPSDEQLKSGTASVVCLLNNFYPREAKVQWKVDNALQSGNSQESVTEQDSKDSTYSLSSTLTLSKADYEKHKVYACEVTHQGLSSPVTKSFNRGEC
notes: also called VL/VH-exchange construct
EC50 [1]: 4.6 nM
EC50 of killing (LDH release) of LS-174T cells, human PBMCs, E:T 10:1, 28 h [2]: 0.955 nM
EC50 of killing (LDH release) of MKN-45 cells, human PBMCs, E:T 10:1, 28 h [2]: 0.243 nM
EC50 [3]: 9.3 nM

B3: “2+1 IgG scFab, P329G LALA” (anti-EGFR/anti-huCD3) (bispecific antibody)
heavy 1: not shown
heavy 2: QVQLVQSGAEVKKPGSSVKVSCKASGFTFTDYKIHWVRQAPGQGLEWMGYFNPNSGYSTYAQKFQGRVTITADKSTSTAYMELSSLRSEDTAVYYCARLSPGGYYVMDAWGQGTTVTVSSASTKGPSVFPLAPSSKSTSGGTAALGCLVKDYFPEPVTVSWNSGALTSGVHTFPAVLQSSGLYSLSSVVTVPSSSLGTQTYICNVNHKPSNTKVDKKVEPKSCDKTHTCPPCPAPEAAGGPSVFLFPPKPKDTLMISRTPEVTCVVVDVSHEDPEVKFNWYVDGVEVHNAKTKPREEQYNSTYRVVSVLTVLHQDWLNGKEYKCKVSNKALGAPIEKTISKAKGQPREPQVCTLPPSRDELTKNQVSLSCAVKGFYPSDIAVEWESNGQPENNYKTTPPVLDSDGSFFLVSKLTVDKSRWQQGNVFSCSVMHEALHNHYTQKSLSLSPGK
light: DIQMTQSPSSLSASVGDRVTITCRASQGINNYLNWYQQKPGKAPKRLIYNTNNLQTGVPSRFSGSGSGTEFTLTISSLQPEDFATYYCLQHNSFPTFGQGTKLEIKRTVAAPSVFIFPPSDEQLKSGTASVVCLLNNFYPREAKVQWKVDNALQSGNSQESVTEQDSKDSTYSLSSTLTLSKADYEKHKVYACEVTHQGLSSPVTKSFNRGEC
binding result [4]: binds

B4: “1+1 IgG scFab, one armed” (anti-EGFR/anti-huCD3) (bispecific antibody)
heavy 1: not shown
heavy 2: B3 heavy 2
light: B3 light
binding result [5]: binds

B5: “1+1 IgG scFab, one armed inverted” (anti-EGFR/anti-huCD3) (bispecific antibody)
heavy 1: not shown
heavy 2: EVQLVESGGGLVQPGGSLRLSCAASGYSFTGYTMNWVRQAPGKGLEWVALINPYKGVSTYNQKFKDRFTISVDKSKNTAYLQMNSLRAEDTAVYYCARSGYYGDSDWYFDVWGQGTLVTVSSASTKGPSVFPLAPSSKSTSGGTAALGCLVKDYFPEPVTVSWNSGALTSGVHTFPAVLQSSGLYSLSSVVTVPSSSLGTQTYICNVNHKPSNTKVDKKVEPKSCDKTHTCPPCPAPEAAGGPSVFLFPPKPKDTLMISRTPEVTCVVVDVSHEDPEVKFNWYVDGVEVHNAKTKPREEQYNSTYRVVSVLTVLHQDWLNGKEYKCKVSNKALGAPIEKTISKAKGQPREPQVCTLPPSRDELTKNQVSLSCAVKGFYPSDIAVEWESNGQPENNYKTTPPVLDSDGSFFLVSKLTVDKSRWQQGNVFSCSVMHEALHNHYTQKSLSLSPGK
light: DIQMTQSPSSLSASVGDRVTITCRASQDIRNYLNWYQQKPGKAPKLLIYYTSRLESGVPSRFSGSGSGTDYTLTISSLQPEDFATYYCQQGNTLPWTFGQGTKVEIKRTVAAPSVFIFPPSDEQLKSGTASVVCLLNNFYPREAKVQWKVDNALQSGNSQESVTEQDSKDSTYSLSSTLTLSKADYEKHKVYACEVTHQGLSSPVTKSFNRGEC
binding result [6]: binds

B6: “1+1 IgG scFab” (anti-EGFR/anti-huCD3) (bispecific antibody)
heavy: not shown
chain: DKTHTCPPCPAPEAAGGPSVFLFPPKPKDTLMISRTPEVTCVVVDVSHEDPEVKFNWYVDGVEVHNAKTKPREEQYNSTYRVVSVLTVLHQDWLNGKEYKCKVSNKALGAPIEKTISKAKGQPREPQVCTLPPSRDELTKNQVSLSCAVKGFYPSDIAVEWESNGQPENNYKTTPPVLDSDGSFFLVSKLTVDKSRWQQGNVFSCSVMHEALHNHYTQKSLSLSPGK
light: B3 light
binding result [7]: binds
